Three molecules from paper PMC5256927, “Proteolysis-Dependent Remodeling of the Tubulin Homolog FtsZ at the Division Septum in Escherichia coli” (PLoS ONE, 2017) can be followed below.

The target in series [1] is Gfp-ZC67(R379E) (E. coli) (UniProt P0A9A6).
The target in the next series is Gfp-ZC67 (E. coli) (UniProt P0A9A6).
Series [2] deals with the molecule itself. In words: co-sedimentation; polymers collected by ultracentrifugation (129,000xg, 30 min, 23°C) after 3 min with GTP (2 mM) and a regenerating system in 50 mM MES pH 6.5, 100 mM KCl, 10 mM MgCl2; FtsZ and/or Gfp-FtsZ, 10 μM total; pellets and supernatants by SDS-PAGE.
Series [3] deals with the molecule itself. In words: cross-linking + other: sucrose gradient fractionation; without GTP; labeled FtsZ 24 μM in 50 mM MES pH 6.5, 100 mM KCl, 10 mM MgCl2; cross-linked with DSP (0.6 mM), 5–20% sucrose gradient with 40% cushion, 100,000xg, 180 min, 4°C; fractions read by fluorescence.

On to “ClpXP (from UniProt P0A6H1 1-424; P0A6G7 15-207) (complex)”, for which the degradation of Gfp-ZC67(R379E) (3 μM) by ClpXP (1 μM) with ATP (5 mM): loss of fluorescence with time, against Gfp-ZC67 (% more slowly than Gfp-ZC67) in series [1] came to 50. In the series with Gfp-ZC67 (E. coli), this molecule had a degradation of Gfp-ZC67 (3 μM) by ClpXP (1 μM) with ATP (5 mM): loss of Gfp fluorescence after 60 min (% of the initial fluorescence) of 25.

B1: FtsZ (natural protein, E. coli, UniProt P0A9A6 1-383, looked up)
chain: MFEPMELTNDAVIKVIGVGGGGGNAVEHMVRERIEGVEFFAVNTDAQALRKTAVGQTIQIGSGITKGLGAGANPEVGRNAADEDRDALRAALEGADMVFIAAGMGGGTGTGAAPVVAEVAKDLGILTVAVVTKPFNFEGKKRMAFAEQGITELSKHVDSLITIPNDKLLKVLGRGISLLDAFGAANDVLKGAVQGIAELITRPGLMNVDFADVRTVMSEMGYAMMGSGVASGEDRAEEAAEMAISSPLLEDIDLSGARGVLVNITAGFDLRLDEFETVGNTIRAFASDNATVVIGTSLDPDMNDELRVTVVATGIGMDKRPEITLVTNKQVQQPVMDRYQQHGMAPLTQEQKPVAKVVNDNAPQTAKEPDYLDIPAFLRKQAD
notes: FtsZ, E. coli, cell division protein (tubulin homolog); schematic gives polymerization domain 1-316, unstructured linker 317-369, C-terminal region 370-383; plasmid pET-FtsZ; also called native FtsZ; wild type FtsZ; source: E. coli BL21 (λDE3), purified as described [24,25,72,73]
For the molecule B1, in series [2], the binding result is given as “binds”.

B2: Alexa Fluor labeled FtsZ (FtsZ-AF488) (natural protein, E. coli, UniProt P0A9A6 1-383, looked up)
chain: MFEPMELTNDAVIKVIGVGGGGGNAVEHMVRERIEGVEFFAVNTDAQALRKTAVGQTIQIGSGITKGLGAGANPEVGRNAADEDRDALRAALEGADMVFIAAGMGGGTGTGAAPVVAEVAKDLGILTVAVVTKPFNFEGKKRMAFAEQGITELSKHVDSLITIPNDKLLKVLGRGISLLDAFGAANDVLKGAVQGIAELITRPGLMNVDFADVRTVMSEMGYAMMGSGVASGEDRAEEAAEMAISSPLLEDIDLSGARGVLVNITAGFDLRLDEFETVGNTIRAFASDNATVVIGTSLDPDMNDELRVTVVATGIGMDKRPEITLVTNKQVQQPVMDRYQQHGMAPLTQEQKPVAKVVNDNAPQTAKEPDYLDIPAFLRKQAD
modifications: Alexa Fluor 488 label (site not stated)
notes: FtsZ, E. coli, as m1, labeled with Alexa Fluor; schematic gives regions 1-316, 317-369, 370-383; also called labeled fluorescent FtsZ; Fluorescence-labeled FtsZ; source: E. coli BL21 (λDE3), purified, labeled with Alexa Fluor 488; fluorescent active subunits obtained by cycles of polymerization and depolymerization
In general, stoichiometry N refers to a count of units in the complex or per binding partner. In the case of B2, the “stoichiometry N” value in series [3] came to 2.
